These substances were tested against endogenous phospho-IKKα/β, O15111;O14920 (assay: co-immunoprecipitation (IP with anti-Tax mab, blot with anti-phospho-IKK), band quantified as Phospho-IKK/Tax). Conditions: 293 T cells, parent: 100.

| Substance | percent of parent [% WT] |
| --- | --- |
| wild-type Tax protein of Human T-lymphotropic virus type 1 (HTLV-1), C-terminal 6His tag (Tax-His) (from UniProt P03409) K1-10R | 3 |
| wild-type Tax protein of Human T-lymphotropic virus type 1 (HTLV-1), C-terminal 6His tag (Tax-His) (from UniProt P03409) K4-8R | 2 |
| wild-type Tax protein of Human T-lymphotropic virus type 1 (HTLV-1), C-terminal 6His tag (Tax-His) (from UniProt P03409) K6-8R | 10 |
| wild-type Tax protein of Human T-lymphotropic virus type 1 (HTLV-1), C-terminal 6His tag (Tax-His) (from UniProt P03409) K7-8R | 27 |
| wild-type Tax protein of Human T-lymphotropic virus type 1 (HTLV-1), C-terminal 6His tag (Tax-His) (from UniProt P03409) K7R | 95 |
| wild-type Tax protein of Human T-lymphotropic virus type 1 (HTLV-1), C-terminal 6His tag (Tax-His) (from UniProt P03409) M22 | < 1 |
| wild-type Tax protein of Human T-lymphotropic virus type 1 (HTLV-1), C-terminal 6His tag (Tax-His) (from UniProt P03409) P79A; Q81A | 84 |

Reference: article PMC3476979
